Assay results as given in patent US20240342246A1 (YALE UNIVERSITY, published 2024).
Where a chain is given by its changes, count along the chain named. Numbers in names are those of the source. Each block holds one binder with its values, some of them ahead of it.

Biological target: IL-12 receptor β1 (IL-12Rβ1) (human, UniProt P42701 24-662)
Experiment: cell-based or functional assay

EC50 of STAT4 phosphorylation in human NK cells (flow cytometry, FIG. 3A): 0.0408 µg/mL
EC50 of STAT4 phosphorylation in human NK cells (flow cytometry, FIG. 3B): 0.0574 µg/mL
B1: wild-type (WT) IL-12 (ligand)
chain 1: IWELKKDVYVVELDWYPDAPGEMVVLTCDTPEEDGITWTLDQSSEVLGSGKTLTIQVKEFGDAGQYTCHKGGEVLSHSLLLLHKKEDGIWSTDILKDQKEPKNKTFLRCEAKNYSGRFTCWWLTTISTDLTFSVKSSRGSSDPQGVTCGAATLSAERVRGDNKEYEYSVECQEDSACPAAEESLPIEVMVDAVHKLKYENYTSSFFIRDIIKPDPPKNLQLKPLKNSRQVEVSWEYPDTWSTPHSYFSLTFCVQVQGKSKREKKDRVFTDKTSATVICRKNASISVRAQDRYYSSSWSEWASVPCS
chain 2: RNLPVATPDPGMFPCLHHSQNLLRAVSNMLQKARQTLEFYPCTSEEIDHEDITKDKTSTVEACLPLELTKNESCLNSRETSFITNGSCLASRKTSFMMALCLSSIYEDLKMYQVEFKTMNAKLLMDPKRQIFLDQNMLAVIDELMQALNFNSETVPQKSSLEEPDFYKTKIKLCILLHAFRIRAVTIDRVMSYLNAS

EC50 of STAT4 phosphorylation in human NK cells (flow cytometry, FIG. 3A): 0.839 µg/mL
B2: IL-12 H216A/K217A/K219A triple mutant (HKK) (ligand)
chain 1: B1 chain 1 with H194A, K195A, K197A
chain 2: B1 chain 2

EC50 of STAT4 phosphorylation in human NK cells (flow cytometry, FIG. 3B): 0.29 µg/mL
B3: H216A/K219A IL-12 (IL-12p40 HK219 with WT IL-12p35) (ligand)
chain 1: B1 chain 1 with H194A, K197A
chain 2: B1 chain 2
